From the nanobody polyreactivity screen of Harvey et al. (2022)

Test: yeast display, Sf9 membrane polyspecificity reagent, FACS + sequencing; frameworks hold sequencing errors
Outline: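 After 36–48 hours of galactose induction, yeast (Saccharomyces cerevisiae BJ5465) displaying a synthetic nanobody library were stained at 4 °C for 1 hour with 10% biotinylated, detergent-solubilized Sf9 membrane reagent. Streptavidin microbeads enriched the stained cells before FACS sorting into low and high (top ~1%) gates on anti-HA and streptavidin fluorescence. Each clone's polyreactivity label reflects its gate of origin.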

Sequence: QVQLVESGGCLVQAGGSLRLSCAASGSIFYKYAMGWYRQAPGKERELVAAITSGGRTTYADSVKGRFTISRDNAKNTVYLQMNSLKPEDTAVYYCAAVVFSRRYWVKFYYWGQGTQVNVSS
- polyreactivity (PSR sort gate): high polyreactivity

Sequence: QVQLVESGGGLVQAGGSLRLSCAASGFIFEKYTMGWYRQAPGKERELVAAITWNGGSTYYADSVKGRFTISRDNAKNTVYLQMNSLKPEDTAVYYCAARVGWNKRRYDYWGQGTQVNVSS
- polyreactivity (PSR sort gate): low polyreactivity

Sequence: QVQLVESGGGLVQAGGRLRISCAASGSIFKGYARGWSRQGPGKERELVAAISGSGTSTYYADSVKGRFTISRDNAKNTVYLQMNSLTPEDTAVYYCATGWYTVFSRRMYSWGQGTQVTVSS
- polyreactivity (PSR sort gate): high polyreactivity

Sequence: QVQLVESGGGLVQAGGSLSLSCAASGSIFYHNAMGWYRQAPGKERELVAAITGSGGSTYYADSVKGRFTISRDNAKNTVYLQMNSLKPEDTAVYYCAAVQLYQKHQITYVAHEYWGQGTQVTVSS
- polyreactivity (PSR sort gate): low polyreactivity

Sequence: QVQLVESGGGLVQAGGSLRLSCAASGRTFNRNAMGWYRQAPGKARELVAAISRGGGGTFFADSVKWRFTISRDNAKNTVYLQMNSLKPEDTAFYFCAAVPIAADKANGYDYWGQGTQVTVSS
- polyreactivity (PSR sort gate): low polyreactivity

Sequence: QVQLVESGGGLVQAGGSLRLSCAASGFIFPGYAMGWYRQAPGKERELVAVISGSGARTYYADSVKGRFTISRDNAKNTVYLQMNSLKPEDTAVYYCATDYCRTRQYRPGDYWGQGTQVTVSS
- polyreactivity (PSR sort gate): high polyreactivity

Sequence: HVQLVESGGGLVQAGGSLRLSCAASGFTSYLYTMGWYRQAPGKERELVAAISNSGGNTYYADSVKGRFTISRDNAKNTVYLQMNSLKPEDTAVYYCAARLFAAKYRYGYWGQGTQVTVSS
- polyreactivity (PSR sort gate): high polyreactivity

Sequence: QVQLVESGGGLVQAGGSLRLISAASGITFRYYVMGWYRHAPGKERELVASISWGGGSTYYADSVKGRFTISRDNAKNTVYLHMNSLIPEDTAVYYCAAEYWVPAVKFGYEFWGQGSQVTVSS
- polyreactivity (PSR sort gate): high polyreactivity

Sequence: QVQLVESGGGLVQAGGSLRLSCAASGSTFYLNAMGWYRQAPGKERELVAAIDYRGGSTYYADSVKGRFTISRDNAKNTVYLQMNSLKPEDTAVYYCNADYVYVHYQPGYYWGQGTQVTVSS
- polyreactivity (PSR sort gate): low polyreactivity

Sequence: QVQLVESGGGLVQAGGSLRLSCAASGFIFHLYAMGWYRQAPGKERDLVAAIRISDGSTYYADSVKGRFTISRDNAKNSVYLQMNRLKPEDTAVYYCNVVYRYGGYNYWGQGTQVTVSS
- polyreactivity (PSR sort gate): high polyreactivity

Sequence: QVQLVESGGGIVQARGSLRLSCAASGRIFAPYAMGWYRQAPGKERELVAAIRISGDSTYYADSVKGRFTISRDNAKNTVYLQMNSLKPHDTAVYYCAAEYYILHWFGYAGYPAYNYWGQGTQVTVSS
- polyreactivity (PSR sort gate): high polyreactivity

Sequence: QVQLVESGGGLVQAGGSLRLSCAASGRTLTYNVMGWYRPAPGKERELVASISATGGSTYYADSVKGRFTISRDNAKNTVYLQMNSLKPEDTAVYSCAARGYRYHYATRYDYWGQATQVTVSS
- polyreactivity (PSR sort gate): high polyreactivity

Sequence: QVQLVESGGGLVQAGGSLRLSCAASGRTFWYYAMGWYRPAPGKERELVAGIRSGGSTYYADSVKGRFTISRDNAKNTVYLQMNSLKPEDTAVYYCATDYYYSNAKYDYWGQGTQVTVSS
- polyreactivity (PSR sort gate): high polyreactivity

Sequence: QVQLVESGGGLVQAGGSLRLSCAASGRIFGVYAMGWYRQAPGKERELVAAISRGGSTKYADSVKGRFTISRDNAKNTVYLQMNSLKPEDTAVYYCAARRWGRVYTTYTGGYWGQGTQVTVSS
- polyreactivity (PSR sort gate): high polyreactivity

Sequence: QVQLVESGGGLVQAGGSLRLSCAASGSIFESNAMGWYRQAPGKERELVADITYRGTRTYYADSVKGRFTISRDNAKNTVYLQMNSLKPEDTAVYYCAVWQDHYDWGQGTQVTVSS
- polyreactivity (PSR sort gate): low polyreactivity

Sequence: QVQLVESGGGLVQAGGSLRLSCAASGRTFYRYAMGWYRQAPGKERELVAAISTSGSTTYADSVKGRFTISRDNAKNTVYLQMISLKPEDTAVYYCNAVYYYRPDWRQSNLSQYGYWGQGTQVTVSS
- polyreactivity (PSR sort gate): high polyreactivity

Sequence: QDQLVESGGGLVQAGGSLPLSCAASGRTISAYAMGWYRQAPGKERELVAAISRRGGSTYYADSVKGRFSISRDNAKNTVYLQLNSLKPEETAVYYCAADVYKQYGYYYWGEGTQVTVSS
- polyreactivity (PSR sort gate): high polyreactivity
